The subject of the data set is ATP. The experiment in a line: switch fluorescence ratio, 500 uM ATP over buffer (Cy3 cluster intensity, sum of 5 cycles each) (fold (ratio)); higher = stronger signal-on switching upon ATP binding; sequences stand for … in TCGTCGGCAGCGTCAGATGTGTATAAGAGACAGTTTTTTTTTTTTTTTTTTTTTTTTT…TC. To be noted: aptamer strand: ATP DNA aptamer (quencher-CACCTGGGGGAGTATTGCGGAGGAAGG + anchor), 100 nM annealed; ATP concentration: 500 uM. The essentials: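 After annealing to 100 nM quencher-labelled ATP aptamer, Cy3-labelled switching-strand clusters on a modified Illumina MiSeq flow-cell were imaged in selection buffer. A second image followed after 15 min with 500 uM ATP at 22 °C, and five such buffer/ATP cycles were done, each separated by NaOH stripping and re-annealing. The fluorescence ratio, averaged per switch-domain sequence, is summed target-cycle over summed buffer-cycle Cy3 intensity per cluster, with clusters outside 100-1000 RFU excluded.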

± gives the standard deviation of the averaged measurements.
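Further: ATP exposure 15 min at 22 °C before imaging.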

As for CGGGCAGTTG, the switch fluorescence ratio is 0.9992 ± 0.0071. As for CGGGCATGGG, the figure is 1.01 ± 0.029. With CGGGCCACGT the figure was 0.997 ± 0.034; with CGGGCCACTT, 1.008 ± 0.0076. As for CGGGCCGGGA, the figure is 0.976 ± 0.025; as for CGGGCCGTTT, 1.06 ± 0.077. On to CGGGCCTTGA, for which the switch fluorescence ratio is 0.981 ± 0.016. Take CGGGCGATAA: the switch fluorescence ratio amounted to 1.45 ± 0.0045.

Take CGGGCGGACA: the switch fluorescence ratio worked out at 0.974 ± 0.04. As to CGGGCGGGTG, the switch fluorescence ratio is 1.03 ± 0.017. In the case of CGGGCGTCTC, the switch fluorescence ratio was found to be 0.996 ± 0.022. In the case of CGGGCTATGG, the switch fluorescence ratio turned out to be 1 ± 0.023. With CGGGCTGTTG, the switch fluorescence ratio turned out to be 0.963 ± 0.033. For the sequence CGGGGAAAGC, the switch fluorescence ratio stood at 0.985 ± 0.027. For the sequence CGGGGAAGTG, the switch fluorescence ratio worked out at 1 ± 0.019. With CGGGGAATTT the figure was 1.01 ± 0.022; with CGGGGAGTAT, 0.975 ± 0.015; with CGGGGATCGT, 1 ± 0.032. As for CGGGGATGCA, the figure is 1.03 ± 0.023; as for CGGGGATGTC, 1.05 ± 0.014. As for CGGGGATTTC, the switch fluorescence ratio is 1 ± 0.027.

With CGGGGATTTG, the switch fluorescence ratio was found to be 0.976 ± 0.032. As for CGGGGCGAAG, the figure is 0.984 ± 0.038. As for CGGGGCGGGA, the figure is 1.01 ± 0.021; as for CGGGGCTGAA, 0.991 ± 0.0089; as for CGGGGGAATG, 0.967 ± 0.027.

Regarding CGGGGGACTG, the switch fluorescence ratio amounted to 1.04 ± 0.039. As for CGGGGGAGTA, the figure is 0.996 ± 0.018; as for CGGGGGATGG, 1.01 ± 0.045; as for CGGGGGCCGA, 1 ± 0.019. With CGGGGGGACG the figure was 1.01 ± 0.084; with CGGGGGGCTC, 0.99 ± 0.01; with CGGGGGGTAC, 1.03 ± 0.036. For the sequence CGGGGGGTAG, the switch fluorescence ratio was 0.995 ± 0.035.

On to CGGGGGGTGG, for which the switch fluorescence ratio came to 1 ± 0.039. As for CGGGGGGTTT, the figure is 1.01 ± 0.025; as for CGGGGGTACA, 1.02 ± 0.019.

Regarding CGGGGGTAGT, the switch fluorescence ratio was 1.03 ± 0.015.

Consider CGGGGGTCGA, for which the switch fluorescence ratio amounted to 0.989 ± 0.031. Regarding CGGGGTAGTC, the switch fluorescence ratio was determined as 0.967 ± 0.07.

With CGGGGTATTT, the switch fluorescence ratio was found to be 1 ± 0.022. As for CGGGGTCGTT, the figure is 1 ± 0.024. Regarding CGGGGTGAAA, the switch fluorescence ratio was determined as 0.983 ± 0.029. With CGGGGTGCCT the figure was 0.999 ± 0.024. Consider CGGGGTGTTA, for which the switch fluorescence ratio was determined as 1.07 ± 0.057. With CGGGGTTACT the figure was 0.9961 ± 0.0082. As to CGGGGTTATT, the switch fluorescence ratio amounted to 0.989 ± 0.014.

Consider CGGGGTTTGC, for which the switch fluorescence ratio came out at 0.997 ± 0.015. For CGGGGTTTGG, the switch fluorescence ratio was found to be 0.999 ± 0.017.

As for CGGGTAAGTA, the switch fluorescence ratio stood at 1.03 ± 0.097.

For CGGGTAATCG, the switch fluorescence ratio was 1.01 ± 0.0082. As for CGGGTAATTC, the figure is 1.128 ± 0.0039; as for CGGGTACTTT, 1 ± 0.059. With CGGGTATTAA the figure was 0.994 ± 0.032; with CGGGTATTCG, 0.99 ± 0.03; with CGGGTATTGG, 0.97968 ± 0.00074.

For CGGGTCGGTT, the switch fluorescence ratio worked out at 1.07 ± 0.1. With CGGGTCTAAA, the switch fluorescence ratio is 0.9966 ± 0.0027. With CGGGTCTATT the figure was 0.9649 ± 0.001. As for CGGGTCTTAG, the figure is 1.01 ± 0.011; as for CGGGTGAGGA, 1.04 ± 0.04.

CGGGTGAGTA: the switch fluorescence ratio is 1.05 ± 0.08.

Consider CGGGTGCAAG, for which the switch fluorescence ratio was determined as 1.03 ± 0.027.

With CGGGTGGCCT, the switch fluorescence ratio amounted to 1 ± 0.02. Consider CGGGTGGCGA, for which the switch fluorescence ratio was 1.02 ± 0.081.

In the case of CGGGTGGGAA, the switch fluorescence ratio was 0.9995 ± 0.0026. As for CGGGTGGGCA, the figure is 0.945 ± 0.019; as for CGGGTGGGGA, 1.01 ± 0.04. For CGGGTGGGGC, the switch fluorescence ratio turned out to be 1.02 ± 0.052. With CGGGTGGGGG the figure was 1.07 ± 0.036; with CGGGTGGGTA, 1 ± 0.023; with CGGGTTAAAA, 0.9714 ± 0.0034. With CGGGTTAATA the figure was 0.989 ± 0.022; with CGGGTTAGGA, 1.02 ± 0.036. As for CGGGTTAGTT, the figure is 1.002 ± 0.01. On to CGGGTTCAGT, for which the switch fluorescence ratio worked out at 0.974 ± 0.014. As for CGGGTTCGTG, the figure is 0.972 ± 0.029. As for CGGGTTCTGG, the figure is 0.989 ± 0.014; as for CGGGTTGCCT, 0.999 ± 0.028. As for CGGGTTGGGA, the figure is 1.007 ± 0.0042; as for CGGGTTGTGT, 1 ± 0.02; as for CGGGTTTCGC, 0.986 ± 0.014. With CGGGTTTGTG, the switch fluorescence ratio was 0.973 ± 0.032. As for CGGGTTTTCC, the figure is 1.03 ± 0.042; as for CGGGTTTTTT, 0.988 ± 0.032. As to CGGTAACCGG, the switch fluorescence ratio was determined as 0.979 ± 0.0098. With CGGTAAGGCA the figure was 0.99 ± 0.017; with CGGTAAGTGG, 0.988 ± 0.024. As for CGGTAATATC, the figure is 1.915 ± 0.016; as for CGGTACCGTT, 1.02 ± 0.049. In the case of CGGTACGGGT, the switch fluorescence ratio was 0.992 ± 0.025. With CGGTAGATCG the figure was 1 ± 0.073. As for CGGTAGGCGG, the figure is 0.971 ± 0.018.

For the sequence CGGTATAAGT, the switch fluorescence ratio was determined as 0.9949 ± 0.0042.

Turning to CGGTATTATG, the switch fluorescence ratio is 0.993 ± 0.022.

Turning to CGGTATTCCG, the switch fluorescence ratio is 0.945 ± 0.017. For CGGTATTCTT, the switch fluorescence ratio was found to be 0.9883 ± 0.0068.

Turning to CGGTATTTAA, the switch fluorescence ratio came to 1.02 ± 0.046. As for CGGTATTTAC, the figure is 1.04 ± 0.021; as for CGGTCAACAC, 1.66 ± 0.15; as for CGGTCAAGAG, 1.11 ± 0.019. As for CGGTCATAAG, the figure is 0.982 ± 0.043; as for CGGTCCAATC, 1.37 ± 0.052; as for CGGTCCCTGC, 1.01 ± 0.1. CGGTCCGGGT: the switch fluorescence ratio is 0.99721 ± 0.00018. With CGGTCGGAGG the figure was 0.974 ± 0.023; with CGGTCGGGGG, 0.999 ± 0.032. With CGGTCTGTGG the figure was 0.995 ± 0.021; with CGGTCTGTT, 0.9878 ± 0.0066.

In the case of CGGTCTTCAT, the switch fluorescence ratio was 0.9903 ± 0.00043.

As for CGGTGAATTT, the switch fluorescence ratio turned out to be 0.98263 ± 0.0009.

On to CGGTGCGGGC, for which the switch fluorescence ratio stood at 1 ± 0.09. Consider CGGTGCTGGG, for which the switch fluorescence ratio was 0.999 ± 0.04. As to CGGTGGAGGG, the switch fluorescence ratio was determined as 0.9849 ± 0.0091. In the case of CGGTGGATTC, the switch fluorescence ratio was found to be 1.0049 ± 0.00055. Consider CGGTGGGCGA, for which the switch fluorescence ratio was determined as 0.987 ± 0.048. As to CGGTGGGGGG, the switch fluorescence ratio worked out at 1.04 ± 0.03. As for CGGTGGGTTG, the switch fluorescence ratio is 0.969 ± 0.053. With CGGTGGTTGC the figure was 1.03 ± 0.11; with CGGTGTGGCT, 0.97 ± 0.016.
